For one data set, the system named is mouse primary neurons. Description: Uptake into primary neurons in culture, fluorescence microscopy. The following applies: low nanomolar concentrations in culture medium, 24-48 h. Format: cell-based. How it is done:
The data in FIG. 11A indicate that the fusion protein rh NT-Bri2 BRICHOS is internalized in CNS cells and appears in intracellular vesicles. We studied the intracellular localization in more detail, using primary mouse neurons in culture and the recombinant fusion protein mCherry-Bri2 BRICHOS. Recombinant mCherry-Bri2 BRICHOS was added to the culture medium at low nanomolar concentrations, and after 24-48 h the neurons were immobilized and visualized under a fluorescence microscope.

Data set [1] has as its system App^NL-G-F and App^NL-F mice. The settings on record: mouse, in vivo, iv.
Procedure: After the end of 10-12 weeks of treatment, Bri2 BRICHOS amounts in the CNS were analysed.
Representative sections (A,D) were double stained with anti-Bri2 BRICHOS antibody (red/pink color) and 82E1 anti-Aβ antibody (green color) counterstained with hematoxylin Mayer (blue color) in rh Bri2 BRICHOS R221E or PBS treated App^NL-G-F and App^NL-F mice. Histograms represents mean intensity of Bri2 BRICHOS in hippocampus (B,E) and cortex (C,F) of App^NL-G-F (B,C) and App^NL-F (E,F) mice. Data are shown as mean±SEM (n=3-4 mice/group, 4 histological sections from each mouse analyzed). Unpaired parametric two-tailed t-test was used to calculate p-values. Scale bars represents 400 μm (upper four panels in A and D) and 100 μm (lower two panels in A and D). * p<0.05, ** p<0.01, *** p<0.001, **** p<0.0001.
Data set [2] deals with hippocampal slice preparations. Description: Aβ42-induced neurotoxicity in hippocampal slice preparations.
In the next data set the target is Aβ42 (Homo sapiens, UniProt P05067). Description: Aβ42 oligomer generation. Format: biochemical.
Sequence of Aβ42 (P05067 672-713 limits assumed): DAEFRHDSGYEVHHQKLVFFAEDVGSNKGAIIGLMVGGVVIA
A further data set has as its system mice. The settings on record: mouse, in vivo.

“mCherry: control: ca 30 kDa fluorescent protein derived from sea anemones [reference compound]”: in the data set with mouse primary neurons, the “uptake into primary neurons” value is on record as “not taken up to any detectable level”.
As to “Bri2 BRICHOS R221E monomers: rh Bri2 BRICHOS mutated R221E so that the monomer is stabilised (SEQ ID NO: 13)”, the “overall Bri2 BRICHOS staining (mean intensity, hippocampus and cortex) versus PBS” value in data set [1] is recorded as “significant increase”. Moreover, the “effect on Aβ42-induced neurotoxicity” value in data set [2] was “alleviates Aβ42-induced neurotoxicity”. For the same substance, the “effect on Aβ42 oligomer generation” value with Aβ42 is “selectively reduces Aβ42 oligomer generation”. In addition, the BBB passage result in the data set with mice is “passes the BBB in mice and shows a trend towards higher passage than the wildtype protein”.

These data come from patent publication US20230220038A1, “BRI2 BRICHOS DOMAIN FOR DELIVERY OF PROTEINS INTO CNS NEURONS” (ALPHABETA AB, priority 2021, published 2023).
